These results are taken from the supplement of paper PMC9732359.

This data set is described as follows: protein stability index of a GFP-peptide fusion (yeast GPS) (PSI 1-4); higher = more stable; sorted into four equal gates, so the index is relative within each strain. The method, boiled down:
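Each library plasmid carries Cherry plus GFP with a tiled 17-residue yeast protein peptide fused downstream, and the pooled library was carried in yeast. Mid-log cultures in leucine-free medium were sorted into four equal gates by GFP/Cherry ratio. Reads from Illumina sequencing of PCR-amplified plasmids from each gate were assigned to strains by barcodes. Per peptide, the protein stability index was computed as the summed products of gate read frequency and gate number.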

± gives the uncertainty stated by the source.

For KTICNLLISDTESNELI [IRR1], the protein stability index stood at 2.74 ± 0.063 (doa10∆), 2.73 ± 0.075 (pdr5∆), 2.4 ± 0.055 (san1∆) and 2.68 ± 0.065 (ubr1∆).
The corresponding values for INSGTFVKVTKATLELL [RPL7A] are 3.01 ± 0.1, 2.92 ± 0.092, 2.65 ± 0.12 and 2.9 ± 0.12.
For MPFWKFFMKNFPFVLKV [SRB8], the protein stability index reads like this: (doa10∆) 2.8 ± 0.23; (pdr5∆) 1.99 ± 0.11; (san1∆) 2.03 ± 0.12; (ubr1∆) 2.04 ± 0.1.
On the same counts, the results for EEISRLQRDLIQTKEQV [YIL149C/MLP2] are 2.77 ± 0.095, 2.98 ± 0.15, 3.13 ± 0.14 and 3.11 ± 0.082.
For YSIEMKPYSGKLLKVCL [ECM29], the protein stability index by setting is: (doa10∆) 2.62 ± 0.077; (pdr5∆) 2.33 ± 0.098; (san1∆) 2.51 ± 0.076; (ubr1∆) 2.83 ± 0.069.
On to IKEDIEKFDLERVTALK [SMC1], for which the protein stability index runs as follows: (doa10∆) 3.63 ± 0.21; (san1∆) 3.41 ± 0.1.
On to DTKNLYVIKALQSLTSK [RPS10A], for which the protein stability index is 1.75 ± 0.077 (doa10∆), 1.95 ± 0.077 (pdr5∆), 1.3 ± 0.16 (san1∆) and 1.34 ± 0.078 (ubr1∆).
On the same counts, the results for ERIVVSYEYYNIKHKHT [SMC2] are 1.63 ± 0.047, 1.86 ± 0.064, 1.74 ± 0.11 and 1.87 ± 0.049.
On the same counts, the results for LYVPHSENRFPGWDFET [RPL5] are 2.44 ± 0.12, 2.89 ± 0.069, 2.21 ± 0.1 and 2.68 ± 0.13.
As for GISEVQARKSKSVSFYA [RPT5], the protein stability index runs as follows: (doa10∆) 3.4 ± 0.064; (pdr5∆) 3.39 ± 0.093; (san1∆) 3.37 ± 0.056; (ubr1∆) 3.31 ± 0.063.
On the same counts, the results for KTDLELLVERLKEDDSS [RPN1] are 3.18 ± 0.11, 3.3 ± 0.14, 3.05 ± 0.1 and 3.18 ± 0.17.
Consider AEQEKAKNIISNVLDGN [LRP1], for which the protein stability index worked out at 2.45 ± 0.051 (doa10∆), 2.7 ± 0.059 (pdr5∆), 2.63 ± 0.056 (san1∆) and 2.98 ± 0.05 (ubr1∆).
On the same counts, the results for DEEYPVKVKVSYQKLLK [PRP8] are 3.03 ± 0.091, 1.86 ± 0.078, 1.91 ± 0.15 and 2.6 ± 0.054.
The corresponding values for CKDDVQLQKILESLKPI [MTW1] are 3.11 ± 0.11, 2.94 ± 0.089, 2.79 ± 0.06 and 2.87 ± 0.07.
Take VDLLQFPWLNAIKYRPT [POP3]: the protein stability index is 2.33 ± 0.07 (doa10∆), 2.42 ± 0.091 (pdr5∆), 2.36 ± 0.15 (san1∆) and 1.84 ± 0.11 (ubr1∆).
MENTLGEGSTVNASVDV [SWI3] came in with a protein stability index (ubr1∆) of 3.54 ± 0.21.
Regarding KMIDFATLSKLKKKYQI [SIR3], the protein stability index reads like this: (doa10∆) 2.9 ± 0.11; (pdr5∆) 3.35 ± 0.1; (san1∆) 3.53 ± 0.051; (ubr1∆) 3.47 ± 0.048.
As to LKSHYYQTCKNSEYLKR [SMC2], the protein stability index by setting is: (doa10∆) 1.54 ± 0.067; (pdr5∆) 1.5 ± 0.057; (san1∆) 1.36 ± 0.091; (ubr1∆) 1.85 ± 0.046.
The corresponding values for TPYNADFDGDEMNLHVP [RPO31] are 2.83 ± 0.087, 3.35 ± 0.085, 3.07 ± 0.075 and 3.21 ± 0.062.
The corresponding values for QPQHPHYVSTSKISQMA [YLR018C/POM34] are 1.71 ± 0.037, 2.17 ± 0.04, 2.34 ± 0.048 and 2.19 ± 0.026.
WIKFLLHTLYLRPASAI [SSN8] yielded a protein stability index (doa10∆) of 1.74 ± 0.045, a protein stability index (pdr5∆) of 1.29 ± 0.035, a protein stability index (san1∆) of 1.25 ± 0.068 and a protein stability index (ubr1∆) of 1.15 ± 0.038.
On the same counts, the results for LILAGQVKVKGQLGEMA [YCS4] are 3.49 ± 0.1, 3.35 ± 0.097, 3.12 ± 0.069 and 2.87 ± 0.072.
The corresponding values for LQLIIFLRTQFLKLYVL [RGR1] are 1.25 ± 0.1, 1.4 ± 0.11, 1.53 ± 0.12 and 1.41 ± 0.091.
As for LIIDGFKSYATRTVITD [SMC2], the protein stability index stood at 2.82 ± 0.11 (doa10∆), 3.21 ± 0.09 (pdr5∆), 2.99 ± 0.071 (san1∆) and 3.12 ± 0.083 (ubr1∆).
On the same counts, the results for LQQAKLRESEISQKLTN [SMC3] are 3.18 ± 0.076, 3.17 ± 0.073, 3.15 ± 0.087 and 2.97 ± 0.069.
As to EPLAIALSMGKSSAFVI [ARP7], the protein stability index was 1.48 ± 0.076 (doa10∆), 2.02 ± 0.071 (pdr5∆), 1.67 ± 0.1 (san1∆) and 1.77 ± 0.089 (ubr1∆).
